# Test results reported in a protein production outcome set (Wang et al. 2014).
# Experiment: label from the status in PepcDB records
row,Sequence,protein production
1,MSNQFIQYLNRAASGSIPGFVIMKLLMLELPNLMGLLLPLGFYVALLLAYGRLYAESEMTVLRACGYGPRQLLKHSFAMATVVLVVVAIVMIWASPVIAVERIKLIRSTGIKTLIQTIMPGRFHAINSGQQIFYVQSMNRDHSQAEQIFMAKHSVQDNRLLWDVLWADKAFAEVNPQTGEEYIVLQNGKEYQGVPGHADYQIAEFASYKSKLPNPTVVMHDDARTAKTRDLWPLNNHDLKKAAELQWRISIPLMVLTLTLVAVPLSRVSPRSGKYSKLLPAIIIYIFYANFMFVSRDAIATGKIPWWIGMWWVHVAVAILGILFIWRNQVKLA,failed
2,MSNSRELGDLLEQIRLGEDSQLEFKRVVFENDKIKGPNGDSLSQEIAAFANAIGGRLILGVDDKTRDVVGIPLDRLDAVSIWLENCVHDRIKPEPTIYLRRRLVPDRSGTEHAVLVIDIPRSLYVHLAPGGYFRRQGSSKHELPPNELLRLMQSRQRAGTLGFDEMPVLGCTQANFDAALYGRFLGTTDEPEELRLRKLKLLVPGEPGEEWASVAGVLMATATPSDWLPQAYVQCVHYAGTEKTAQEQLDAQDIQGPLDQQIRQAAAFVLRGMRTAARKNLGRIDVPQFDPEAVFEAIANAGAHRDYSISGAPVQVHLFTDRLEITSPGALPNSQSVESIALRTATRNELLTNLLARCPVEMEGVGRSRVMEKRGEGVPQILNRSERLSGHRPKFELLGENALRVTLYAADPETSPLLNEAGRGSVGLPHAGFARDDG,failed
3,MSNSSIDIGVPSLPPPFSIGTISIPTFSRQHLFLKIILHYNLVERYSRQLIVLGLGIQQRLNELKILIAGCGALGTAVAELLARLGVKELTIVDADVVDITNLHRVHLFDENDVGKPKAEVCAKKISLINSSIKINYIIDILDEENVERLISDKDYVFDALDSLYYKLLLNDAIVKLGKILIYGGINGEYGSAKLIDPSQTSCLSCFIDYSDQDEIGNSCDVIGTTPLIVELTATLQVNLMLNHLRGNPDYSLFYIDSRELKIERINIEKNSQCKTCVLNEYPFLYQKISKPKCGIFRTNMKIPELDEPKVFKNLGNVTLCYPSIGCFEKRGR,failed
4,MSNTYLASMALMGALVVAVVTWMVRGRGWYHYSPGSSTSGRSPTSDRESRFETYADQPMVWVGAFAVLVVGLLVGVVASISGPVETQSIAGLAVAVVGGAGLCGYLLFGVYLSATRRGHPRSLAVAESATVAGVLFLIAVGFQLVGA,failed
5,MSNVLTEIDSQYPYMTKNEKKIAKFILNSPQKVIKMRSQDLASLLDISTSSVIRFSKKITDGGFHDLKINISKYVPKASSIYNVELMNNESTESLRTKLHTRTTRALNHANNELN,not failed
6,MSNVTAEQKKEVKGRGFLPSRDGEHFAARIITVNGVINASQAKKIAEAAEKFGNGQLAFTTRLTVELPGVKFEDIEALSEFIASENLITGGTGSRVRPVVACKGTVCVHGLADTQALAAEIHEEFYKNWYDVKLPHKFKIGVGGCPNNCIKPDLNDLGIVGQRVPDYDSELCVGCKKCAVVEVCPVKAAKLTDKGKLEIDSNLCNNCGKCIESCNFDSIEEKESGYKVYIGGKWGKSVRPGTQIDRLFSKEELMTLIEKAILLFREQGNTGERFGITIDRIGADKFIEMLLSDEVLERKEEILEALLHLTGGAVCLEHHHHHH,failed
7,MSPARARLTAPIVLLMSVATGLAVASNYYAQPLLHTIGAEFALTTATAGAIVTVAQLSYAVGLILLVPLGDLYERRTLIALMTALSAVGLLLSAFSPGIGWLMLGTAVTGLLSVVAQVLVPFAATLAEPHERGKVVGAVMSGLLLGILLARTIAGALADLGSWRTVYWVAAILMLLMSMALWRVLPRSVNPTRLSYPRLLASIVQLYAQEPLLRARSVLGALLFAAFSMLWTPLTFLLSGPNYGYSNTTIGLFGLAGAIGAYGANRFGRLNDRGQGNRSTRQGLLLLASWPLLAWGAHHVAPLLAGVLALDLAIQAVHVTNQSAIYRLRPEARSRLTAGYMTSYFLGGAAGSLLSAWIYAHAGWLGVTAAGALTSLAALLYGCLARSARIPETTPAPAIA,failed
8,MSPLALLFLTLFNSVLGLSILFPILGPLGRALGLTEVQVGLFSTGYALMQFLLSPYWGRRSERGRKPVLLVGILGFAASFLLFGVFALLGERGLVPPGLLFFLLLLARLLGGAFSSATLPTAQAYVADVTGRENRTAGMALLGAAFGLAVILGPALGAGLAALFGLLAPVFFSAGIALLNALFVYLVLPESRPRGQEAGARLSPFDPRVFPLLLLGLALNLSSVALEQTIAFYFQDRLLLGGVETAQKVGLALVLYGVVAVFVQGVLVRKTGWPPRVLLSLGLPLGILGFVLLVYAKTFWALALGLALQGAGQGLALPGVTAALSLAVGEGEQGLVAGLNSSAQALGRMLGPIVGTGLYRLAPEGPYVLGASLLLLALLFLPALFRRARL,failed
9,MSPMAPVARAKRKFILLLIKPSHYDDDGYVLRWWRGIIPSNSLATLYGIAADVAARQVLGADVEFEIEAMDEFNTRIDIPALLDRFARNGNFGLVGLVGVQSNQYPRALDIARPFRASGVPVVMGGFHVSGCLAMLDGKAIGLDDCRDMGVAMFAGEAEGGRFDGVLQDAAAGQLQPVYNFLNDLPGIEGVPAPYLPLATVKRTLGLSTSVDAGRGCPYQCSFCTIINVQGRKSRYRTPDDIEAMVRRNWAQGISKYFITDDNFARNKDWEAILDRLIQIRETEDIPLGFMIQVDTLCHKIPRFIEKAKRAGVTRVFIGLENINPANLLTANKRQNKITEYRAMLLAWKDHGIITLAGYILGFPADTPASIRADIDIIKRELPIDVMEFFCLTPLPGSEDHQTLWRAGVAMDPDLNNYDVEHVCTAHPLMSRPEWEAIYREAWSRYYTPDHIETLLRRAAATGIKISSLVKLLAIFSTAIRVENVHPLQCGLFRQRHPSERRPGLAAPNALLFWPRFALDSVRKTGVILAAFAKVAAIGVRVARDPQRLAYTDQALTPVSDDDADSLDLFTQSASAKQAVAHQKKVFDLTHGTP,failed
10,MSPPGQHYAQADAPQRPVLVQESSYLQLSSEAAEFVTQCQICGKPCQLADEPLWTTLATTIPSTIGAMAVSSAPHLPSGSFEWLTAGRVDPGSRVVVLCPTVAHCRAVASHGADVLAVHRDPDTAEKLNRIPGVMAVCGSPESLPLNSSSFDAVLVHQGFHELAPGLALPEIARVLRPGSVLGVSWLVRDDTVPWVKRLAALLRTVDENAMSGDYGTESVHELISSKYFPEDEHTTKRLWVPVNRDSLVAMAAARPAVRALDSDARSNVLTKVAALADDSAGTSGLRLPYQLECWRAWVDHDELTTPIRPHDDGLTITL,failed
11,MSPQSPSNSSISTDDQAGKNPAAAFGPNEWLVDEIYQQYLQDPNSVDRAWWDFFADYKPGAAAASAPAGTAAAGAAETTTPAPAAPTAAAPAAPAAPAPAAPAPAPAAPAPAAAPAVPKPAAAAPAPAAAKPAAAAPAQPKAAAATEAAEGPTFVPLRGPAAAVAKNMNASIEVPTATSVRAVPVKLLFDNRIVINNHLKRARGGKISFTHLIGYAMVQAIKAMPSMNWHYAEKDGKPTLVKPAHVNFGLAIDLVKPNGDRQLVVAGIKKAETLNFFEFWQAYEDIVRRARDGKLTMDDFTGVTVSLTNPGGLGTVHSVPRLMPGQSVIMGVGSMDYPAEFQGTSQDTLNKLGISKVMTLTSTYDHRVIQGAASGEFLRIVANFLLGEGGFYDEIFEALRIPYEPVRWLKDIDASHDDDVTKAARVFELIHSYRVRGHVMADTDPLEYRQRKHPDLDITEHGLTLWDLEREFAVGGFAGKSLMKLRDILGVLRDSYCRTTGIEFMHIQDPKQRKWIQDRIERSHSKPEREEQLRILRRLNAAEAFETFLQTKYVGQKRFSLEGGESVIPLLDAVIDSAAESRLDEVVIGMAHRGRLNVLANIVGKSYAQIFREFEGNLDPKSMHGSGDVKYHLGASGTFTGLDGEQIKVSLAANPSHLETVDPIIEGIARAKQDIINKGGTDFTVLPVALHGDAAFAGQGVVAETLNMSQLRGYRTGGTVHIVINNQVGFTAAPESSRSSMYATDVARMIEAPIFHVNGDDPEAVVRVARLAFEFRQAFNKDVVIDLICYRRRGHNESDNPAFTQPLMYDLIDKKRSVRKLYTESLIGRGDITLEEAEQALQDFQGQLEKVFTEVREAISTPGEAPAPEPQPEFPVAVPTAVSQEVVKRIAESQVNIPDHVTVHPRLLPQLQRRAAMIEDDTIDWGMGETLAIGSLLLEGTPVRLSGQDSRRGTFGQRHAVLIDRVTGEDFTPLQYLADDQARLNVYDSLLSEYAVMGFEYGYSLARPDALVMWEAQFGDFVNGAQTVVDEYISAAEQKWGQTSGVTLLLPHGYEGQGPDHSSARIERFLQLCAQNNMTVAQPTLPSNYFHLLRWQVHNPHHKPLVVFTPKSMLRLKAAASKTEEFTTGAFRPVIGDDTVDAAAVRKVVFCAGKLYYDLEAERKKRGATDAAAAETAIIRLERLYPLPGAELQAEIAKYPNAEKYLWAQEEPANQGAWPFIALNLIDHLDLAVGADVPHGERLRRISRPHSSSPAVGSAKRHQAEQEQLVREVFEA,failed
12,MSPSPLISHRAASADLAGMVRQARQRILLQGNVPGFDVARQIELLHGLAESELGRFLLLYRGLNAEWTHRLVTHQPGSGALAPLERVFYERLPAVLATRERHGHFRRALQRHLRPGCVVASVPCGWMSELLALDYSACPGVQLVGIDYDPEALDGATRLAAGHALAGQITLHRQDAWKLDTREGYDLLTSNGLNIYEPDDARVTELYRRFWQALKPGGALVTSFLTPPPALSPDSPWDMQAIDPHDLQLQQLVFTRLIQPRWNALRTHAQTRAQLEEAGFTDLRFEDDRARLFPTVIARKPA,not failed
13,MSPTLSILIPVYKRDCRRLLEELYKQAEELSVGYEIILGDDCSGEPYTSQYIAYEQEGLCRLVSAEENMGAGRLRNRLAEEAQGEQLLILDSDTLPASPDFIERYLRHASGTTVVCGGFVYPPKSTNPLRQRYGAEVESRSAEERARKPHSGFISMAFMIPRKQMLATGFPPNMGMGYEDILFGERLRQAGIPILHIDNPVEHYHCDTAEGFLATTRSYLDNLYCHREELAELVSLLRAYNLLKRLHLEHHHHHH,failed
14,MSPVINHPVLGPAAPSLGWVPAPRYWLRRQRVLDHMRTLERGRLLEIGCGGGALLADLSRLGFDCRALETSPAARVVARAMNADTEGDKIVETAPADWRGSFDVVAAFEVLEHIDDDVGALRDWRDWLVDGGHILISVPADPRKFNAADEWAGHFRRYDKEDLHKVLKQAGFSVVSSETYGYPLANFLEYFRASAHQLMRKQWAHRSRDDATAQSGVNRSLDSKVWPLYSSALGVRALRLADSLQKRFRDNGRGNGLLVIGRRI,failed
15,MSQEIAVIGSPAFTTGFQLAGVRKVENVADDEKDDDLDAAVEAVLADEDVGIAVMHDDDLAHLSRGVRQSVEASVEPTFVTIGGGASGASGLRDQIKRAIGIDLMDDDDDASAADTEAGDLEHHHHHH,not failed
16,MSQFFYIHPDNPQQRLINQAVEIVRKGGVIVYPTDSGYALGCKIEDKNAMERICRIRQLPDGHNFTLMCRDLSELSTYSFVDNVAFRLMKNNTPGNYTFILKGTKEVPRRLLQEKRKTIGMRVPSNPIAQALLEALGEPMLSTSLMLPGSEFTESDPEEIKDRLEKQVDLIIHGGYLGQKPTTVIDLTDDTPVVVREGVGDVKPFL,not failed
17,MSQNVISQPVEAQQSFARAVTESLPGLLLVCAVALVASFVAPKLEAYPLFKTYLSLKDFILAIIFGIIIRNTVGVPAVFQPGLRYSTIMTKTGIVIMGSSYSLAGLVSVGAQALVFIAVFLFGTALVMMWLCRKVGMSTPLAACLAAGMSVCGVSATIAIAPAVKAKNEDMAYSIAVVLMFGLLALIAFPLIGKVFNLTPEQFGAFAGVGIVNSAQVLAAGFGFSQEAGIVAGIYNIGRVVFLPFVVLMLAIMAAAQEAEQGNEVAKINKWQMIRDKFPLFVLGFLAIVCLNTAGVLTKPEVKMAKHFMEWAFLLGFASIGLTTRLSDLRAAGLNGFLFGFGVAGLKAALALAAVLLFMS,failed
18,MSQSTHQSTDHKRQSQDKNQTHAYAKVWLYFMYYWMIFGIGCYFGQYLPMSWRKPLSLGLLILILATLFIKRARKYGLVISHIYAIIVGLLSYALFTTYLQNLGAEVFYKNIILAIGAFIAFGIIGYFLIKDASSMGKYLFVTLIALIIAGIIGIFINNPIFHTVITIVSLLLFLLYTLYDFNRMKRGQFSPREMGFNLFINLLNIIEDILSLANRFKN,failed
